{
  "source": "patent US8440804B2",
  "about": "“Polypeptides having modulatory effects on cells” (Ecole Normale Superieure de Lyon, priority 2006, dated 2013)",
  "key": {"peptide aptamer RG22": {"tested_on": "peptide aptamer RG22", "test": "Yeast two-hybrid mating assay, positive control of interaction", "format": "binding", "details": "RG22 interacts with LexA in most LexA fusion proteins", "source_text": "(§1) (A) Yeast two-hybrid mating assay. TB50α yeast were co-transformed with pSH18-34T (bearing a lacZ reporter gene) and plasmids directing the expression of LexA alone or in fusion with peptide aptamers R5G42, R7G44 or R5G52. MB210a yeast were transformed with the selected cDNA library plasmids directing the expression of CNAβ, CNAγ, and NS5ATP2 truncated proteins. To obtain negative controls, MB210a yeast were also transformed with the empty prey plasmid (pJG4-5) and with pJG4-5 directing the expression of Ras and FKBP12 prey proteins. To obtain a positive control, MB210a yeast were transformed with pJG4-5 directing the expression of RG22 peptide aptamer prey fusion protein that interacts with LexA in the context of most LexA fusion proteins.\n(§2) The inventors set out to map the R5G42 binding site on CNA. The CNA interacting clones selected in the yeast two-hybrid experiments corresponded to the carboxy-terminal regions of the beta and gamma isoforms, encompassing the calmodulin-binding domain and the auto-inhibitory domain (see FIG. 3B). […] The LexA-R5G52 bait protein may thus not be properly expressed and/or folded in this yeast two-hybrid setting.\nThe 5′ end of RH6 (upper case) matches part of the HA epitope tag and the 5′ ends of RH4, RH3 and RH7 (upper case) match the 5′ extremity of the ADH terminator. The PCR reactions was performed using pCMV-SPORT6-CnAβ as a template. […]"}, "MCF-7 cells": {"tested_on": "MCF-7 cells", "test": "Colony formation assay (cell proliferation assay, crystal violet)", "format": "cell-based", "details": "MCF-7, continuous expression 2 weeks, compared to AptaLib and human thioredoxin", "method": "(§3) (B) Colony formation assays. Hela or MCF-7 cells were transfected with plasmids directing the stable expression of the Cdk inhibitor p21, a library of peptide aptamers from pBK1 (AptaLib), Human thioredoxin (HTRX), and peptide aptamers R7G44, R5G42, R5G52. The cells were cultured for two weeks and the colonies were stained with crystal violet.\n(§4) The inventors wished to establish the antiproliferative activity of these peptide aptamers using alternative cellular models and a non-retroviral vector to express individually each aptamer. They cloned the aptamer coding genes into a vector bearing a hygromycin selection marker. They also subcloned the pBK1 library into this vector, to create “AptaLib”. They continuously expressed the aptamers, the empty thioredoxin scaffold or AptaLib in Hela and MCF-7 cells for 2 weeks and they stained the cells that grew. […] These aptamers may originate from the remaining background of slowly proliferating cells during the seventh screening iteration, independently of the expressed aptamers. […] This could be due to the fact that the CMTMR assay is more sensitive in detecting modest antiproliferative effects than the colony formation assay or that some peptide aptamers somehow enhance the CMTMR labeling of their host cells.\n(§5) To stably express peptide aptamers in mammalian cells, the episomal eukaryotic expression vector pCEP4 that bears a CMV promoter and a hygromycin selection marker (InVitrogen) was used. Aptamer coding sequences were PCR amplified using the oligonucleotides\n(§6) that contained a stop codon. The PCR products were digested with NheI and NotI and ligated into NheI/NotI-cut pCEP4 to create pEA-aptamer plasmids. 3×10^5 cells/well were plated in 6-well plates and transfected 24 h after using Jet PEI (Qbiogen), 3.7 μg pEA-aptamer plasmids and 0.3 μg pEGFP-C1 (Clontech) to monitor transfection. Hygromycin (InVitrogen) was added at 200 μg/ml two days later and the cells were cultured for 2 weeks, renewing the medium twice a week. The cells were then rinsed in PBS and were fixed and stained by incubating 30 min in crystal violet (0.05% crystal violet, 20% ethanol, 0.37% formaldehyde). Excess crystal violet was removed by washing with water. In Vitro Phosphatase Assay"}, "Hela cells": {"tested_on": "Hela cells", "test": "Colony formation assay (cell proliferation assay, crystal violet)", "format": "cell-based", "details": "continuous expression 2 weeks, compared to AptaLib and human thioredoxin", "method": "as §3, §4, §5, §6"}, "CNA": {"tested_on": "CNA", "test": "Yeast two-hybrid assay", "format": "binding, human", "details": "mating assay, LexA-aptamer fusions", "source_text": "as §1, §2\nThe inventors explored the ability of R5G42 mutants having a one amino acid change as compared to R5G42, to bind to CNA beta and gamma C-Terminal fragments (FIG. 3b) and to NS5A-TP2. To this end, they proceeded to yeast-two hybrid assays as in example 3. CNA beta and gamma C-Terminal fragments (FIG. 3b) and NS5A-TP2 were cloned in three different plasmids (pSH18-34, pJK103 and pRB18-40), which differed from each other in the level of sensitivity of their promoter to the bait/prey complex formation, pSH18-34 having the highest sensitivity and pRB18-40 having the lowest.\nThe 5′ end of RH6 (upper case) matches part of the HA epitope tag and the 5′ ends of RH4, RH3 and RH7 (upper case) match the 5′ extremity of the ADH terminator. The PCR reactions was performed using pCMV-SPORT6-CnAβ as a template. CnAβCter Δ1, Δ2, CaM were constructed by combining oligonucleotides RH6/RH4, RH6/RH3, RH6/RH7, respectively. […]"}, "[1]": {"tested_on": "CNA fragments (CNA constructs CNA1-CNA11)", "test": "Further yeast two-hybrid binding assays (higher sensitivity)", "design": "species or system human", "source_text": "FIG. 14. Specificity of aptamers according to the invention for CNA and NS5A-TP2 Interaction matrix between peptide aptamers R5G42, C2, C7, C8, N9, R5G44 and R5G52 with CNA constructs CNA1-CNA8 (A) CNA9-11 (B) and NS5A-TP2 (C). An interaction phenotype between CNA3/CNA 11, which both contain the Calmodulin binding domain (CaM) and the auto-inhibitory domain (Al) but not the CNB binding domain (CNB) and the aptamers R5G42, C2, C7, C8 and N9 is observed in a two-hybrid assay. R5G44 and R5G52 aptamers recognize neither the CNA fragments, nor NS5A-TP2. Only aptamers R5G42 and N9 recognize NS5A-TP2.\nThe inventors proceeded to further yeast two-hybrid binding assays between peptide aptamers R5G42 (SEQ ID 22), C2 (SEQ ID 23), C7 (SEQ ID 27), C8 (SEQ ID 28), N9 (SEQ ID 33), R5G44 and R5G52 with CNA constructs CNA1-CNA8 (FIG. 14A), CNA9-CNA11 (FIG. 14B) and NS5A-TP2 (SEQ ID 15) (FIG. 14C). The sensitivity of this yeast two-hybrid assay was higher than in the experiment reported above."}, "[2]": {"tested_on": "Bad phosphorylation (phosphatase activity of calcineurin in cells)", "test": "Monitoring of Bad phosphorylation in HeLa cells (western blot)", "format": "cell-based", "details": "transient expression in human cells", "method": "(B) Monitoring of BAD phosphorylation in cultured cells. Hela-Tet cells were transfected with plasmids directing the transient expression of BAD, CNAβ, CNB and peptide aptamers R5G42, R5G52 or R7G44. Transfected cells were treated or not with 500 nM FK506. The expression level of BAD and the phosphorylation of serine 112 and 136 residues were monitored by western blot experiments using specific antibodies.\nThe inventors set out to confirm this finding in human cells. Bad is a key pro-apoptotic protein whose activity is tightly regulated by its phosphorylation status, itself controlled by the balanced activity of several protein kinases and calcineurin. Therefore, the phosphatase activity of calcineurin in cells can be monitored by examining Bad phosphorylation. HeLa cells were transfected with plasmids directing the expression of Bad, CNAβ, CNB and either R5G42, R5G52 or R7G44.\nThe peptide aptamer coding genes were cloned into pPEAt (a pCEP4-based vector that bears a tetracyclin-inducible promoter and a hygromycin resistance gene), as described above (“cell proliferation assay”).\n4×10^5 Hela-tet cells/well were seeded in a 6-well plate 24 h before transfection. […] The lysates were centrifuged to remove cellular debris and the protein content was quantified using the microBCA protein assay kit (Pierce). […]"}},
  "data": [
    {"molecule": "R5G52: peptide aptamer: variable region IQSPPESPTG in human thioredoxin (SEQ ID 32) (protein, left off: large carriers) MVKQIESKTAFQEALDAAGDKLVVVDFSATWCGPIQSPPESPTGGPCKMIKPFFHSLSEKYSNVIFLEVDVDDCQDVASECEVKCMPTFQFFKKGQKVGEFSGANKEKLEATINELV", "values": [
      {"measurement": "yeast two-hybrid interaction phenotype", "setting": "peptide aptamer RG22", "result": "did not show an interaction phenotype"},
      {"measurement": "inhibition of cell proliferation (colony formation)", "setting": "MCF-7 cells", "result": "significantly inhibited the proliferation"},
      {"measurement": "inhibition of cell proliferation (colony formation)", "setting": "Hela cells", "result": "significantly inhibited the proliferation"},
      {"measurement": "yeast two-hybrid interaction phenotype with CNA", "setting": "CNA", "result": "did not show an interaction phenotype"},
      {"measurement": "recognition of the CNA fragments", "setting": "[1]", "result": "recognized neither the CNA fragments"},
      {"measurement": "Bad phosphorylation levels", "setting": "[2]", "result": "does not affect Bad phosphorylation levels"}
    ]}
  ]
}
